Measurements published in US20180155451A1 (published 2018).

T1: FcγRIIa H (human, UniProt P12318 34-217)
T1 construct: extracellular domain; also called FcgRIIa H type; 2aH; not shown: His tag at the C terminus
T1 sequence (looked up): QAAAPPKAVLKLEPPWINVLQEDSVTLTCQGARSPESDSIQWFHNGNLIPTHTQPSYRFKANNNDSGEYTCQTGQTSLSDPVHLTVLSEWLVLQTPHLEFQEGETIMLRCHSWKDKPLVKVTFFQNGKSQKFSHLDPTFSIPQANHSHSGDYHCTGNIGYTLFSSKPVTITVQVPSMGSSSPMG


Each binder was assayed against T1, FcγRIIa H (assay: SPR Biacore, relative binding).

Binder | He/Con_2aH
GpH7-A5/GpH7-B3 variant S324_09D/GpL16-k0 (antibody, human IgG1, kappa, also called He Ab S324_09D) heavy 1: not shown heavy 2: not shown light: DIVMTQSPLSLPVTPGEPASISCQASESLVHSNRNTYLHWYLQKPGQSPQLLIYKVSNRFSGVPDRFSGSGSGTDFTLKISRVEAEDVGVYYCSQNTHVPPTFGQGTKVEIERTVAAPSVFIFPPSDEQLKSGTASVVCLLNNFYPREAKVQWKVDNALQSGNSQESVTEQDSKDSTYSLSSTLTLSKADYEKHKVYACEVTHQGLSSPVTKSFNRGEC | 106 % of GpH7-A5/GpH7-B3/GpL16-k0 (=100)
GpH7-A5/GpH7-B3 variant S337_09D/GpL16-k0 (antibody, human IgG1, kappa, also called He Ab S337_09D) heavy 1: not shown heavy 2: not shown light: DIVMTQSPLSLPVTPGEPASISCQASESLVHSNRNTYLHWYLQKPGQSPQLLIYKVSNRFSGVPDRFSGSGSGTDFTLKISRVEAEDVGVYYCSQNTHVPPTFGQGTKVEIERTVAAPSVFIFPPSDEQLKSGTASVVCLLNNFYPREAKVQWKVDNALQSGNSQESVTEQDSKDSTYSLSSTLTLSKADYEKHKVYACEVTHQGLSSPVTKSFNRGEC | 107 % of GpH7-A5/GpH7-B3/GpL16-k0 (=100)
GpH7-A5/GpH7-B3 variant T335_13S/GpL16-k0 (antibody, human IgG1, kappa, also called He Ab T335_13S) heavy 1: not shown heavy 2: not shown light: DIVMTQSPLSLPVTPGEPASISCQASESLVHSNRNTYLHWYLQKPGQSPQLLIYKVSNRFSGVPDRFSGSGSGTDFTLKISRVEAEDVGVYYCSQNTHVPPTFGQGTKVEIERTVAAPSVFIFPPSDEQLKSGTASVVCLLNNFYPREAKVQWKVDNALQSGNSQESVTEQDSKDSTYSLSSTLTLSKADYEKHKVYACEVTHQGLSSPVTKSFNRGEC | 106 % of GpH7-A5/GpH7-B3/GpL16-k0 (=100)
GpH7-A5/GpH7-B3 variant S324_20W/GpL16-k0 (antibody, human IgG1, kappa, also called He Ab S324_20W) heavy 1: not shown heavy 2: not shown light: DIVMTQSPLSLPVTPGEPASISCQASESLVHSNRNTYLHWYLQKPGQSPQLLIYKVSNRFSGVPDRFSGSGSGTDFTLKISRVEAEDVGVYYCSQNTHVPPTFGQGTKVEIERTVAAPSVFIFPPSDEQLKSGTASVVCLLNNFYPREAKVQWKVDNALQSGNSQESVTEQDSKDSTYSLSSTLTLSKADYEKHKVYACEVTHQGLSSPVTKSFNRGEC | 103 % of GpH7-A5/GpH7-B3/GpL16-k0 (=100)
GpH7-A5/GpH7-B3 variant S324_02A/GpL16-k0 (antibody, human IgG1, kappa, also called He Ab S324_02A) heavy 1: not shown heavy 2: not shown light: DIVMTQSPLSLPVTPGEPASISCQASESLVHSNRNTYLHWYLQKPGQSPQLLIYKVSNRFSGVPDRFSGSGSGTDFTLKISRVEAEDVGVYYCSQNTHVPPTFGQGTKVEIERTVAAPSVFIFPPSDEQLKSGTASVVCLLNNFYPREAKVQWKVDNALQSGNSQESVTEQDSKDSTYSLSSTLTLSKADYEKHKVYACEVTHQGLSSPVTKSFNRGEC | 102 % of GpH7-A5/GpH7-B3/GpL16-k0 (=100)
GpH7-A5/GpH7-B3 variant T335_15Y/GpL16-k0 (antibody, human IgG1, kappa, also called He Ab T335_15Y) heavy 1: not shown heavy 2: not shown light: DIVMTQSPLSLPVTPGEPASISCQASESLVHSNRNTYLHWYLQKPGQSPQLLIYKVSNRFSGVPDRFSGSGSGTDFTLKISRVEAEDVGVYYCSQNTHVPPTFGQGTKVEIERTVAAPSVFIFPPSDEQLKSGTASVVCLLNNFYPREAKVQWKVDNALQSGNSQESVTEQDSKDSTYSLSSTLTLSKADYEKHKVYACEVTHQGLSSPVTKSFNRGEC | 106 % of GpH7-A5/GpH7-B3/GpL16-k0 (=100)

The remaining lines, values ahead:

He/Con_2aH | Binder
117 % of GpH7-A5/GpH7-B3/GpL16-k0 (=100) | GpH7-A5/GpH7-B3 variant S324_06M/GpL16-k0 (antibody, human IgG1, kappa, also called He Ab S324_06M) heavy 1: not shown heavy 2: not shown light: DIVMTQSPLSLPVTPGEPASISCQASESLVHSNRNTYLHWYLQKPGQSPQLLIYKVSNRFSGVPDRFSGSGSGTDFTLKISRVEAEDVGVYYCSQNTHVPPTFGQGTKVEIERTVAAPSVFIFPPSDEQLKSGTASVVCLLNNFYPREAKVQWKVDNALQSGNSQESVTEQDSKDSTYSLSSTLTLSKADYEKHKVYACEVTHQGLSSPVTKSFNRGEC
105 % of GpH7-A5/GpH7-B3/GpL16-k0 (=100) | GpH7-A5/GpH7-B3 variant T335_16H/GpL16-k0 (antibody, human IgG1, kappa, also called He Ab T335_16H) heavy 1: not shown heavy 2: not shown light: DIVMTQSPLSLPVTPGEPASISCQASESLVHSNRNTYLHWYLQKPGQSPQLLIYKVSNRFSGVPDRFSGSGSGTDFTLKISRVEAEDVGVYYCSQNTHVPPTFGQGTKVEIERTVAAPSVFIFPPSDEQLKSGTASVVCLLNNFYPREAKVQWKVDNALQSGNSQESVTEQDSKDSTYSLSSTLTLSKADYEKHKVYACEVTHQGLSSPVTKSFNRGEC
108 % of GpH7-A5/GpH7-B3/GpL16-k0 (=100) | GpH7-A5/GpH7-B3 variant T335_10E/GpL16-k0 (antibody, human IgG1, kappa, also called He Ab T335_10E) heavy 1: not shown heavy 2: not shown light: DIVMTQSPLSLPVTPGEPASISCQASESLVHSNRNTYLHWYLQKPGQSPQLLIYKVSNRFSGVPDRFSGSGSGTDFTLKISRVEAEDVGVYYCSQNTHVPPTFGQGTKVEIERTVAAPSVFIFPPSDEQLKSGTASVVCLLNNFYPREAKVQWKVDNALQSGNSQESVTEQDSKDSTYSLSSTLTLSKADYEKHKVYACEVTHQGLSSPVTKSFNRGEC
103 % of GpH7-A5/GpH7-B3/GpL16-k0 (=100) | GpH7-A5/GpH7-B3 variant T335_19Q/GpL16-k0 (antibody, human IgG1, kappa, also called He Ab T335_19Q) heavy 1: not shown heavy 2: not shown light: DIVMTQSPLSLPVTPGEPASISCQASESLVHSNRNTYLHWYLQKPGQSPQLLIYKVSNRFSGVPDRFSGSGSGTDFTLKISRVEAEDVGVYYCSQNTHVPPTFGQGTKVEIERTVAAPSVFIFPPSDEQLKSGTASVVCLLNNFYPREAKVQWKVDNALQSGNSQESVTEQDSKDSTYSLSSTLTLSKADYEKHKVYACEVTHQGLSSPVTKSFNRGEC
101 % of GpH7-A5/GpH7-B3/GpL16-k0 (=100) | GpH7-A5/GpH7-B3 variant S337_16H/GpL16-k0 (antibody, human IgG1, kappa, also called He Ab S337_16H) heavy 1: not shown heavy 2: not shown light: DIVMTQSPLSLPVTPGEPASISCQASESLVHSNRNTYLHWYLQKPGQSPQLLIYKVSNRFSGVPDRFSGSGSGTDFTLKISRVEAEDVGVYYCSQNTHVPPTFGQGTKVEIERTVAAPSVFIFPPSDEQLKSGTASVVCLLNNFYPREAKVQWKVDNALQSGNSQESVTEQDSKDSTYSLSSTLTLSKADYEKHKVYACEVTHQGLSSPVTKSFNRGEC
